Experimental data: publication PMC7876548
pKd: −log10 of the molar value.

Target: unmethylated D2 peptide (amino acids 208-243 of the third intracellular loop of the human D2 receptor) (human) (UniProt P14416)
Experiment: fluorescence polarisation; anisotropy; fluorescently labelled D2 peptide at 0.025 µM final, Par-4 or CaM added from 10x stocks of 0-20 µM; 200 mM NaCl, 200 µM CaCl2, 50 mM Tris pH 7.5; room temperature, ten minutes; average of four trials

Chain of unmethylated D2 peptide (amino acids 208-243 of the third intracellular loop of the human D2 receptor) (human) (P14416 208-243): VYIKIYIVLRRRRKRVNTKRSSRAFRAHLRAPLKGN

pKd: 7.67
Substance: human Par-4 (prostate apoptosis response 4 protein) (from UniProt Q96IZ0 1-340) (natural protein)
